T1: hENG(26-586) (R&D Systems, catalog #1097-EN) (human, UniProt P17813 26-586)
T1 construct: also called soluble human ENG extracellular domain
T1 sequence: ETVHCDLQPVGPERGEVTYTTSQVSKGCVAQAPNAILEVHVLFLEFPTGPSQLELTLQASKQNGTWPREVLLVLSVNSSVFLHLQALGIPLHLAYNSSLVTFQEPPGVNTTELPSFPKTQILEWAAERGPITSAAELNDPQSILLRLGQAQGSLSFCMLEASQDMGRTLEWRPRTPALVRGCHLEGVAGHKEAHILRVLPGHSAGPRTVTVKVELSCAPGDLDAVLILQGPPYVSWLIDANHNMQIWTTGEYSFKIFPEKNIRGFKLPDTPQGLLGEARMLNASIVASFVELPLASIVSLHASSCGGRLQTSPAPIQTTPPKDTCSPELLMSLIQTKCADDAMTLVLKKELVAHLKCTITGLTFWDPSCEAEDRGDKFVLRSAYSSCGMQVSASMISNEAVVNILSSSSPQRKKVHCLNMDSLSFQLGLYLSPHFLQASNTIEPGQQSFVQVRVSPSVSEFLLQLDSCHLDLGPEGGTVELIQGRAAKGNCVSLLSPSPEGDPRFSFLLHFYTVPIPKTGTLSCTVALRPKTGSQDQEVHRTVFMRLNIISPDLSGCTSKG


Target: T1, hENG(26-586) (R&D Systems, catalog …)
Experiment: SPR

binding result	Binder
no binding	ALK5 (receptor, human, UniProt P36897 34-126, looked up, Member of the printed range ALK2-ALK7; also called type I receptor ALK5) LQCFCHLCTKDNFTCVTDGLCFVSVTETTDKVIHNSMCIAEIDLIPRDRPFVCAPSSKTGSVTTTYCCNQDHCNKIELPTTVKSSPGLGPVEL
no binding	ALK4 (receptor, human, UniProt P36896 24-126, looked up, Member of the printed range ALK2-ALK7; also called type I receptor ALK4) SGPRGVQALLCACTSCLQANYTCETDGACMVSIFNLDGMEHHVRTCIPKVELVPAGKPFYCLSSEDLRNTHCCYTDYCNRIDLRVPSGHLKEPEHPSMWGPVE
no binding	ALK6 (receptor, human, UniProt O00238 14-126, looked up, Member of the printed range ALK2-ALK7; also called type I receptor ALK6) KKEDGESTAPTPRPKVLRCKCHHHCPEDSVNNICSTDGYCFTMIEEDDSGLPVVTSGCLGLEGSDFQCRDTPIPHQRRSIECCTERNECNKDLHPTLPPLKNRDFVDGPIHHR
no binding	ALK3 (receptor, human, UniProt P36894 24-152, looked up, Member of the printed range ALK2-ALK7; also called type I receptor ALK3) QNLDSMLHGTGMKSDSDQKKSENGVTLAPEDTLPFLKCYCSGHCPDDAINNTCITNGHCFAIIEEDDQGETTLASGCMKYEGSDFQCKDSPKAQLRRTIECCRTNLCNQYLQPTLPPVVIGPFFDGSIR
no binding	TGF-β receptor II (receptor, human, UniProt P37173 24-159, looked up) IPPHVQKSVNNDMIVTDNNGAVKFPQLCKFCDVRFSTCDNQKSCMSNCSITSICEKPQEVCVAVWRKNDENITLETVCHDPKLPYHDFILEDAASPKCIMKEKKKPGETFFMCSCSSDECNDNIIFSEEYNTSNPD
no binding	bone morphogenetic protein receptor II (receptor, human, UniProt Q13873 27-150, looked up, also called BMPRII) SQNQERLCAFKDPYQQDLGIGESRISHENGTILCSKGSTCYGLWEKSKGDINLVKQGCWSHIGDPQECHYEECVVTTTPPSIQNGTYRFCCCSTDLCNVNFTENFPPPDTTPLSPPHSFNRDET
no binding	activin receptor IIB (receptor, human, UniProt Q13705 19-134, looked up, also called ActRIIB) SGRGEAETRECIYYNANWELERTNQSGLERCEGEQDKRLHCYASWRNSSGTIELVKKGCWLDDFNCYDRQECVATEENPQVYFCCCEGNFCNERFTHLPEAGGPEVTYEPPPTAPT
no binding	ALK7 (receptor, human, UniProt Q8NER5 21-113, looked up, Member of the printed range ALK2-ALK7; also called type I receptor ALK7) ELSPGLKCVCLLCDSSNFTCQTEGACWASVMLTNGKEQVIKSCVSLPELNAQVFCHSSNNVTKTECCFTDFCNNITLHLPTASPNAPKLGPME
no binding	ALK2 (receptor, human, UniProt Q04771 21-123, looked up, Member of the printed range ALK2-ALK7; also called type I receptor ALK2) MEDEKPKVNPKLYMCVCEGLSCGNEDHCEGQQCFSSLSINDGFHVYQKGCFQVYEQGKMTCKTPPSPGQAVECCQGDWCNRNITAQLPTKGKSFPGTQNFHLE

From patent publication US20200164029A1 (ACCELERON PHARMA, published 2020)
